For assay [1], the target named is Manduca sexta brush border membrane vesicles (BBMV). In words: 125I-labelled phage added to 10 µg of BBMV with 100-fold excess of unlabeled Cry1Ac.
Assay [2] has the same target. Nature of the assay: 125I-labelled phage added to 10 µg of BBMV, no competitor, 105,252 cpm added.
Assay [3] shares this target. In words: micropanning on 100 µg of BBMV; control sample, set to 1.0 by definition.
Assay [4] shares this target. Nature of the assay: 125I-labelled phage added to 10 µg of BBMV with 100-fold excess of unlabeled Cry1Ac, 105,252 cpm added.
The target of assay [5] is Bovine serum albumin (bovine) (UniProt P02769). In words: micropanning in microtiter wells; control sample, set to 1.0 by definition.
Assay [6] has as its target Manduca sexta brush border membrane vesicles (BBMV). Nature of the assay: 125I-labelled phage on 10 µg of BBMV, competitor 100-fold excess of unlabeled Cry1Ac.
The target is the same in assay [7]. In words: 125I-labelled phage added to 10 µg of BBMV, no competitor.
The target is the same in assay [8]. In words: micropanning on 100 µg of BBMV with an excess of free Cry1Ac as competitor, yield relative to BBMV without competitor.
Assay [9] has the same target. In words: 125I-labelled control phage added to 10 µg of BBMV with 100-fold excess of unlabeled Cry1Ac.
The target is the same in assay [10]. In words: 125I-labelled control phage added to 10 µg of BBMV, no competitor.
Assay [11] has the same target. In words: 125I-labelled control phage added to 10 µg of BBMV, no competitor, 62,319 cpm added.
Assay [12] has the same target. Nature of the assay: 125I-labelled control phage added to 10 µg of BBMV with 100-fold excess of unlabeled Cry1Ac, 62,319 cpm added.
Assay [13] has the same target. Nature of the assay: 125I-labelled toxin added to 10 µg of BBMV, no competitor.
Assay [14] shares this target. Nature of the assay: 125I-labelled toxin added to 10 µg of BBMV with 100-fold excess of unlabeled Cry1Ac.
The target is the same in assay [15]. Nature of the assay: 125I-labelled toxin added to 10 µg of BBMV with 100-fold excess of unlabeled Cry1Ac, 98,242 cpm added.
Assay [16] has the same target. In words: 125I-labelled toxin added to 10 µg of BBMV, no competitor, 98,242 cpm added.
Assay [17] has the same target. Nature of the assay: 125I-labelled toxin on 10 µg of BBMV, competitor 100-fold excess of unlabeled Cry1Ac.

Chain of Bovine serum albumin (bovine) (P02769 25-607 limits assumed): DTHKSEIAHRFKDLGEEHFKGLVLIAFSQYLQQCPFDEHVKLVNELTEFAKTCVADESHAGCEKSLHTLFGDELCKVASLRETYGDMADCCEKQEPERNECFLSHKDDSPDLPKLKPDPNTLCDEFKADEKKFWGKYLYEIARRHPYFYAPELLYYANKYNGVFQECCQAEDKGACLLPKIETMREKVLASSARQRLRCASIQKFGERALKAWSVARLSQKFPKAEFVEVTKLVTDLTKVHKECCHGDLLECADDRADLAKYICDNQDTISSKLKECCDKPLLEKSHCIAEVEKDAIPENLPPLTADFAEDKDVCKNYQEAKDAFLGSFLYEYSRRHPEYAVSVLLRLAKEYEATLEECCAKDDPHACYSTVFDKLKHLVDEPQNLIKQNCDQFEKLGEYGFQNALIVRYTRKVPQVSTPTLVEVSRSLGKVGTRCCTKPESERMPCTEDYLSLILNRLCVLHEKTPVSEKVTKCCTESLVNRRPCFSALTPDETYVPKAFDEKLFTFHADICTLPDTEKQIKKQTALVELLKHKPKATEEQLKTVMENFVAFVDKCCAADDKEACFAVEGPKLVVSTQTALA

As to “1Ac-fUSE5 phage (filamentous fd phage displaying the Cry1Ac-cpIII fusion protein) (from UniProt P05068 1-611; P03661 48-424)”, the % cpm bound in assay [1] was found to be 10.7%; in [7], 11.7%. In addition, the mean cpm bound (n = 2) in [2] is 12300 cpm; in assay [4], 11200 cpm. The relative yield (relative to control sample) in assay [3] came to 1; in assay [5] it was 1; in [8], 1.7. This substance showed a % competition in assay [6] of 8.5%.
Regarding “WT-fUSE5 phage (fUSE5 vector phage without insert, grown in JM109) (from UniProt P03661 19-424)”, the % cpm bound in assay [9] worked out at 7.6%; in assay [10] it was 6.1%. In addition, the relative yield (relative to control sample) in assay [3] came out at 1; in [5], 1; in assay [8], 0.24. Besides, the mean cpm bound (n = 2) is 3780 cpm in assay [11] and 4740 cpm in [12].
For the substance “purified, trypsin-activated HD-73 Cry1Ac toxin (65 kDa) from Bacillus thuringiensis subsp. kurstaki (from UniProt P05068 29-623)”, the % cpm bound was 12.9% in assay [13] and 4.3% in assay [14]. The values for the mean cpm bound (n = 2) in assay [15] and in [16] were 4260 cpm and 12700 cpm, respectively. The substance further displayed a % competition in assay [17] of 66.5%.

The values are drawn from patent publication US20040254364A1.
